1 molecule from US20230270823A1 can be followed below.

Holding throughout (assay): cell-based or functional assay
The target in assay [1] is IL-15Rβ/γ chain (IL-2Rβ and common gamma chain) on human CD8+ T cells and NK cells (human) (UniProt P14784).
Assay [2] shares this target. The source holds these as a separate data set.
For assay [3] the target is unchanged. This is another data set of the same source.
The target is the same in assay [4]. The source holds these as a separate data set.

Read-outs that look alike come from different tables or passages of the source.

IL-15Rβ/γ chain (IL-2Rβ and common gamma chain) on human CD8+ T cells and NK cells (human), sequence (P14784 27-551, chain 1 of 2): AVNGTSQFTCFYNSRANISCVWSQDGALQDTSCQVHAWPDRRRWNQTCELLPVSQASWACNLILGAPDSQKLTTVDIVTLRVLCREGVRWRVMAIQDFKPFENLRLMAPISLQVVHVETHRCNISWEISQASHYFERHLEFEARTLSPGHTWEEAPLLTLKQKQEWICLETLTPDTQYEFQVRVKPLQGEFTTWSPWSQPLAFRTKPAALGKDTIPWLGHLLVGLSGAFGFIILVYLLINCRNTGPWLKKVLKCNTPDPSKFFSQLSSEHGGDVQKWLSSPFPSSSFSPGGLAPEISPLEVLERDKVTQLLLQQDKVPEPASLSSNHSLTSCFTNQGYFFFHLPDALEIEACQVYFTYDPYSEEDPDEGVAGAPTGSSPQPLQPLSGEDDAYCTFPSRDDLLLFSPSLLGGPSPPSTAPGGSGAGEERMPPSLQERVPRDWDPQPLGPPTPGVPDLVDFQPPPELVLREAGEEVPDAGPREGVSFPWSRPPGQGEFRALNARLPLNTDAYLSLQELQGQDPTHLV
IL-15Rβ/γ chain (IL-2Rβ and common gamma chain) on human CD8+ T cells and NK cells (human), sequence (P31785 23-369, chain 2 of 2, further chain): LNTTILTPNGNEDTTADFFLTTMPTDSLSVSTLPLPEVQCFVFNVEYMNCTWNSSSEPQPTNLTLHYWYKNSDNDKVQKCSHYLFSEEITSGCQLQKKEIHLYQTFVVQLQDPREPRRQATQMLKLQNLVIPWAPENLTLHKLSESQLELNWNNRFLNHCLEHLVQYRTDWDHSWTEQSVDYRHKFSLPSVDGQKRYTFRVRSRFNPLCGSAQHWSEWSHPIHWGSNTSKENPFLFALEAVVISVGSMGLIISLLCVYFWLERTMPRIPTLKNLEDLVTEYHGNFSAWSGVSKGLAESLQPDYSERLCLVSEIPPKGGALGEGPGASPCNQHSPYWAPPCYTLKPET

B1: W369-BMK1 (XENP24306) (Fc fusion, not shown: a dimerising Fc or GST)
chain: NWVNVISDLKKIEDLIQSMHIDATLYTESNVHPSCKVTAMKCFLLELQVISLESGDASIHDTVQDLIILANNSLSSNGNVTESGCKECEELEEKNIKEFLQSFVHIVQMFINTS
modifications: IL-15Rα-Fc chain, linker, Fc lack entries
In assay [1], B1 yielded an EC50, % Ki67 expression, human CD8+ T cells of 145 nM; an EC50, % Ki67 expression, human NK cells of 39 nM; a Fold reduced (EC50, % Ki67), human CD8+ T cells of 176 fold; a Fold reduced (EC50, % Ki67), human NK cells of 231 fold. In addition, in assay [2], the EC50, % Ki67 expression, human CD8+ T cells stood at 651 nM; the EC50, % Ki67 expression, human NK cells turned out to be 74.3 nM; the Fold reduced (EC50, % Ki67), human CD8+ T cells came to 2170 fold; the Fold reduced (EC50, % Ki67), human NK cells is 2480 fold. In assay [3], the EC50, % Ki67 expression, human CD8+ T cells was determined as 203 nM; the EC50, % Ki67 expression, human NK cells is 35.5 nM; the Fold reduced (EC50, % Ki67), human CD8+ T cells was determined as 441 fold; the Fold reduced (EC50, % Ki67), human NK cells was 355 fold. For the same molecule, in assay [4], the EC50, % Ki67 expression, human CD8+ T cells stood at 28.5 nM; the EC50, % Ki67 expression, human NK cells worked out at 5.12 nM; the Fold reduced (EC50, % Ki67), human CD8+ T cells was determined as 155 fold; the Fold reduced (EC50, % Ki67), human NK cells worked out at 244 fold.
